Reference: the supplement of paper PMC9170038

Tested on: MS2 coat protein
Assay: apparent KD of MS2 coat protein; designed switch direction (-1 OFF switch, 1 ON switch): -1; higher = weaker reporter binding
Summary of the method: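 Each step of the titration lasted 0.8–1.5 h at the lowest concentration and 10–20 min at the highest. The protein, SNAP-549-labelled MS2 coat protein, went from 0.7 or 1.5 nM doubling to 3 µM over RNA switches transcribed on Illumina chips by stalled E. coli RNA polymerase. Normalised cluster fluorescence was curve-fitted, and the per-design median over clusters is given as apparent KD.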

[1] = input ligand: microRNA oligo, concentration not stated
[2] = Eterna round: R95, input ligand: microRNA oligo, concentration not stated
[3] = Eterna round: R95, input ligand: FMN 200 uM
[4] = Eterna round: R95, input ligand: none

AGCUAGUGCCGAGGAUAUACAUGAGGAUCACCCAUGUAGCCGUGAGGCUUUGUCUCACGGGAUAUGUAGAAGGCGGCGUUGGCA [JL ENG2 1.53] (Eterna round: R96, puzzle: Exclusion NG 2)
apparent KD of MS2 coat protein (input ligand: FMN 200 uM): 34.1 nM
apparent KD of MS2 coat protein [1]: 11.8 nM
apparent KD of MS2 coat protein (input ligand: none): 18.3 nM

CAUUCCGAGCGAGGAUAUCAGUAAAAGGGAAGCUGAGAAGGCGCAAACAUGAGGAUCACCCAUGUCACACGCGGGUAGUUUUCC [Ditiso] (Eterna round: R96, puzzle: Exclusion NG 1)
apparent KD of MS2 coat protein (input ligand: FMN 200 uM): 13.9 nM
apparent KD of MS2 coat protein [1]: 9.74 nM
apparent KD of MS2 coat protein (input ligand: none): 14.3 nM

GCACAGGCAGGAUAUACAUGAGGAUCACCCAUGUGAUCCCUUAAGUACAAAAGUACUAGUAGAAGGGCCUGUGC [Omei Ex3 Model Bachelor's Dilema v47] (Eterna round: R97, puzzle: Exclusion 3)
apparent KD of MS2 coat protein (input ligand: FMN 200 uM): 646 nM
apparent KD of MS2 coat protein (input ligand: none): 1210 nM

AGUUGGCGAGGAUAUACAUGAGGAUCACCCAUGUGGGAGAUACUAGUGAGGUCGAUUAGUAGAAGGCGCUGACA [Mat X3R4 m8] (Eterna round: R97, puzzle: Exclusion 3)
apparent KD of MS2 coat protein (input ligand: FMN 200 uM): 566 nM
apparent KD of MS2 coat protein (input ligand: none): 209 nM

CACCGUUAGGGAGGAUAUCGUACAUGAGGAUCACCCAUGUAAUAAAUGAGAAUUUCGGAUGUAUGCGAGAAGGCCCAAAUCGGC [Ostracism 42 - Jieux - Exclusion NG 2] (Eterna round: R96, puzzle: Exclusion NG 2)
apparent KD of MS2 coat protein (input ligand: FMN 200 uM): 36.8 nM
apparent KD of MS2 coat protein [1]: 35.8 nM
apparent KD of MS2 coat protein (input ligand: none): 48.4 nM

CCGGAAGUACAGGAUAUAGGAGUCGAUAGACUCCUAGAAGGGUAUACAUGAGGAUCACCCAUGUGUCCUACCGG [Fiskers Ex 6 - 71] (puzzle: Exclusion 6)
apparent KD of MS2 coat protein [2]: 23.6 nM

GGUUGGCGAGGAUAUACAUGAGGAUCACCCAUGUGAGAGAAAGAAGUGAGAACGAAAAGUAGAAGGCGCUGACG [salish99_ex3_r3_058] (puzzle: Exclusion 3)
apparent KD of MS2 coat protein [3]: 48.1 nM
apparent KD of MS2 coat protein [2]: 65.8 nM
apparent KD of MS2 coat protein [4]: 66.1 nM

AAUGAUUCAGGAUAUACAUGAGGAUCACCCAUGUUGGUGUCCCUCCCAAAGUUGCAGUGUAGAAGGGAGUCCCG [Tigezaonbi] (puzzle: Exclusion 3)
apparent KD of MS2 coat protein [2]: 132 nM

AAAGAGCUAGGAUAUCGCGACCUUGACAUGAGGAUCACCCAUGUGCCCUCGUAACAACGACGAGAAGGAGCGAAAA [Gelaladied] (puzzle: Exclusion 5)
apparent KD of MS2 coat protein [3]: 36.2 nM
apparent KD of MS2 coat protein [2]: 16.8 nM
apparent KD of MS2 coat protein [4]: 19.9 nM

CACCCUGAUGUCAGGAUAUGCGCGUCGCGCCUCGAGCAGAAGGGACAUGAGGAUCACCCAUGUUGUCUCUUGGG [Orisvedixe] (puzzle: Brourd's mod of Exclusion 4)
apparent KD of MS2 coat protein [2]: 44.5 nM

GUCAGCUCGUCAGGAUAUAUAUUAACAUGAGGAUCACCCAUGUAAGAUCAGCUUCGGCAGUUAAUAUAGAAGGGACGAGCUGAC [ENG2/14-B1] (Eterna round: R96, puzzle: Exclusion NG 2)
apparent KD of MS2 coat protein (input ligand: FMN 200 uM): 181 nM
apparent KD of MS2 coat protein [1]: 154 nM
apparent KD of MS2 coat protein (input ligand: none): 153 nM

GGGUGUGAAGGAUAUACAUGAGGAUCACCCAUGUGAGAGGAGGAGGUUGAGGAGGUUGGUAGAAGGUCAGGAGG [JR_Exclusion3_Sub011] (Eterna round: R96, puzzle: Exclusion 3)
apparent KD of MS2 coat protein (input ligand: FMN 200 uM): 219 nM
apparent KD of MS2 coat protein [1]: 149 nM
apparent KD of MS2 coat protein (input ligand: none): 220 nM

GCAGAAUACUAGGAUAUGUUGGUCGGAGGGCCAACAGAAGGAGUUACAUGAGGAUCACCCAUGUUCCCAAUGGG [Eternabot (Original) Solution 49] (Eterna round: R97, puzzle: Exclusion 6)
apparent KD of MS2 coat protein (input ligand: FMN 200 uM): 66.1 nM
apparent KD of MS2 coat protein (input ligand: none): 52.7 nM

AUCGUGCAGCUUUGCUGUACGAGUACAUGAGGAUCACCCAUGUAGGAUAUGGUACGCAAAGCGUGCUAGAAGGAUAUGAGAUGU [Mat - Exclusion NG 3 - Mod of JL - D98] (Eterna round: R96, puzzle: Exclusion NG 3)
apparent KD of MS2 coat protein (input ligand: FMN 200 uM): 30.4 nM
apparent KD of MS2 coat protein [1]: 25.2 nM
apparent KD of MS2 coat protein (input ligand: none): 31.6 nM

CCCAGUUACGUAGGAUAUUGUACAUGAGGAUCACCCAUGUAAUAAAUGAGGAUUUCGGGUGUCUACAAGAAGGACGGGAUAGGC [Ostracism 17 - Jieux - Exclusion NG 2] (Eterna round: R96, puzzle: Exclusion NG 2)
apparent KD of MS2 coat protein (input ligand: FMN 200 uM): 186 nM
apparent KD of MS2 coat protein [1]: 80.6 nM
apparent KD of MS2 coat protein (input ligand: none): 93 nM

ACGACGUAAGGAUAUACAUGAGGAUCACCCAUGUGGAGAUCCAGAGGAGAGACCUGACGUAGAAGGUGCGUCGA [Eternabot (L2) Solution 87] (Eterna round: R97, puzzle: Exclusion 3)
apparent KD of MS2 coat protein (input ligand: FMN 200 uM): 286 nM
apparent KD of MS2 coat protein (input ligand: none): 1400 nM

UGAUUGUUUACCAGAUUAUACAUGAGGAUCACCCAUGUAGAUCCUACGUGCACGUUAUGCAGCUCGUCUUAUUCCCA [Sensor-V1 #73] (Eterna round: R97, puzzle: Sensor, turn-off variant 1)
apparent KD of MS2 coat protein (input ligand: FMN 200 uM): 40.3 nM
apparent KD of MS2 coat protein (input ligand: none): 44.1 nM

AAUAACAGAGGAUAUACUAUUUUAUGUGUUUGUUGUUUUGAACAUGAGGAUCACCCAUGUAGAAGGCUGAUUGA [JMF 80] (puzzle: Exclusion 2)
apparent KD of MS2 coat protein [2]: 39.6 nM

GCCGAUUAAGUCAGGAUAUACCUAUGGAUACAUAGGUAGAAGGGACAUGAGGAUCACCCAUGUGCCUCAACGGC [Fiskers BMX 4 - 18] (puzzle: Brourd's mod of Exclusion 4)
apparent KD of MS2 coat protein [3]: 71.7 nM
apparent KD of MS2 coat protein [2]: 18.9 nM
apparent KD of MS2 coat protein [4]: 22.7 nM

CUGAGGUAGCGGUCCUAUGACAUGAGGAUCACCCAUGUACCUUGCUUUGAGCAUUUUGCUCGUCUUAUGAUUCUCGG [Mat - Sensor v3 - turn-off var 1 - JL Mod - D39] (puzzle: Sensor v3, turn-off variant 1)
apparent KD of MS2 coat protein [3]: 371 nM
apparent KD of MS2 coat protein [2]: 474 nM
apparent KD of MS2 coat protein [4]: 427 nM

GCAGAAUGAGUUAGGAUAUGAUGAUUUUUCGGAAAUCAGAAGGAACUUGAGGAUCACCCAAGUAAAGAUAGGGU [JR_BMEx4_Sub064] (Eterna round: R97, puzzle: Brourd's mod of Exclusion 4)
apparent KD of MS2 coat protein (input ligand: FMN 200 uM): 358 nM
apparent KD of MS2 coat protein (input ligand: none): 236 nM

CGUGUACGAGGAUAUAGAUUGGAUGACAUGAGGAUCACCCAUGUGAUCAAUCUAUUUGGUUUAGAAGGUGUACAUG [JR_Ex5_Sub050] (Eterna round: R97, puzzle: Exclusion 5)
apparent KD of MS2 coat protein (input ligand: FMN 200 uM): 14.1 nM
apparent KD of MS2 coat protein (input ligand: none): 14.8 nM

UAAUGCAAGUAAAGAUCCUACAUGAGGAUCACCCAUGUGCUCGUCUUAUAAAGUACUAUCACGAAAGUGAUAGUACA [Mat - Sensor v3 - turn-off var 1 - Eli Mod - D83] (puzzle: Sensor v3, turn-off variant 1)
apparent KD of MS2 coat protein [3]: 385 nM
apparent KD of MS2 coat protein [2]: 31.8 nM
apparent KD of MS2 coat protein [4]: 167 nM

AUUAUGUAAGGAUAUCUUACAUGUGACUUCGGUCACUGUUAAGAGAAGGUACAUGAGGAUCACCCAUGUAUAAC [Ex4-3: 48] (puzzle: Exclusion 4)
apparent KD of MS2 coat protein [2]: 18.8 nM

AGGGAGUGAGGAUAUACGAAAUAAAAAGAAGGAAAAAAAGAGUAGAAGGCACAUGAGGAUCACCCAUGUGAGAA [milkweed 12] (Eterna round: R96, puzzle: Exclusion 4)
apparent KD of MS2 coat protein [1]: 16.9 nM

GCUGGACAAGGAUAUGCAAUCGUGCUUCGGCACGUAAGGUCACAUGAGGAUCACCCAUGUAGAAGGUGUCCAGC [E2/4-C2] (Eterna round: R97, puzzle: Exclusion 2)
apparent KD of MS2 coat protein (input ligand: FMN 200 uM): 31.3 nM
apparent KD of MS2 coat protein (input ligand: none): 16.1 nM

UUUUUGUGAGGAUAUGCAAUAUCUUCUAUUUAUUAUUAAUUGCAGAAGGCACAUGAGGAUCACCCAUGUAUUUU [Ex4 - 3 - 36] (puzzle: Exclusion 4)
apparent KD of MS2 coat protein [2]: 20.5 nM

GUCGUGCGGCAGUGCUGUACGAGUACAUGAGGAUCACCCAUGUAGGAUAUGGUUCGUUUUGCGUGCUAGAAGGGCGUGCGUUGG [Excl-NG3-LRO21] (Eterna round: R96, puzzle: Exclusion NG 3)
apparent KD of MS2 coat protein (input ligand: FMN 200 uM): 19.3 nM
apparent KD of MS2 coat protein [1]: 16.3 nM
apparent KD of MS2 coat protein (input ligand: none): 21.4 nM

AAGCGCGUAGGAUAUACAUGAGGAUCACCCAUGUGAGGAGGGAGUUGGAGGUGUGGAAGUAGAAGGACGGAGUG [JR_Exclu3_Sub079] (puzzle: Exclusion 3)
apparent KD of MS2 coat protein [2]: 26.9 nM

CGACUGUGAGGAUAUGGUGAGUAGUGCCUGAGCGCUGCUCACCAGAAGGCACAUGAGGAUCACCCAUGUAUGAC [Mat - Exclusion 4 - Mod of JL - D8] (puzzle: Exclusion 4)
apparent KD of MS2 coat protein [2]: 72.8 nM

CUAAGUUGGUAAGGAUAUCCUACAUUAUUCUGACCCGUGCAAGCUACAUGAGGAUCACCCAUGUGGGAGAAGGUGCGUUAAUGU [Design 5] (Eterna round: R96, puzzle: Exclusion NG 2)
apparent KD of MS2 coat protein (input ligand: FMN 200 uM): 16.3 nM
apparent KD of MS2 coat protein [1]: 13.8 nM
apparent KD of MS2 coat protein (input ligand: none): 20.3 nM
